Experimental data reported in article PMC9091064.

Tests used:
[1] = target: SARS-CoV-2 3CLpro E14A (SARS-CoV-2); experiment: SEC
[2] = target: SARS-CoV-2 3CLpro E14D (SARS-CoV-2); experiment: SEC
[3] = target: SARS-CoV-2 3CLpro E14Q (SARS-CoV-2); experiment: SEC
[4] = target: SARS-CoV-2 3CLpro E14S (SARS-CoV-2); experiment: SEC
[5] = target: SARS-CoV-2 3CLpro E290A (SARS-CoV-2); experiment: SEC
[6] = target: SARS-CoV-2 3CLpro E290D (SARS-CoV-2); experiment: SEC
[7] = target: SARS-CoV-2 3CLpro E290Q (SARS-CoV-2); experiment: SEC
[8] = target: SARS-CoV-2 3CLpro E290Y (SARS-CoV-2); experiment: SEC
[9] = target: SARS-CoV-2 3CLpro K12A (SARS-CoV-2)
[10] = target: SARS-CoV-2 3CLpro K12A (SARS-CoV-2); experiment: SEC
[11] = target: SARS-CoV-2 3CLpro Q299A (SARS-CoV-2); experiment: SEC
[12] = target: SARS-CoV-2 3CLpro Q299E (SARS-CoV-2); experiment: SEC
[13] = target: SARS-CoV-2 3CLpro Q299N (SARS-CoV-2); experiment: SEC
[14] = target: SARS-CoV-2 3CLpro R4A (SARS-CoV-2); experiment: SEC
[15] = target: SARS-CoV-2 3CLpro R4Q (SARS-CoV-2); experiment: SEC
[16] = target: SARS-CoV-2 3CLpro S1A (SARS-CoV-2); experiment: SEC
[17] = target: SARS-CoV-2 3CLpro S10A (SARS-CoV-2); experiment: SEC
[18] = target: SARS-CoV-2 3CLpro S10C (SARS-CoV-2); experiment: SEC
[19] = target: SARS-CoV-2 3CLpro S10T (SARS-CoV-2); experiment: SEC
[20] = target: SARS-CoV-2 3CLpro S139A (SARS-CoV-2); experiment: SEC

How did the stoichiometry N [1] turn out when SARS-CoV-2 3CLpro E14A (enzyme) was run?
The stoichiometry N was 2.

For SARS-CoV-2 3CLpro E14D (enzyme), which stoichiometry N [2] is on record?
Its stoichiometry N is 2.

SARS-CoV-2 3CLpro E14Q (enzyme) was tested. Which stoichiometry N [3] did it give?
The stoichiometry N was 2.

For SARS-CoV-2 3CLpro E14S (enzyme), which stoichiometry N [4] is on record?
Its stoichiometry N is 2.

SARS-CoV-2 3CLpro E290A (enzyme) was tested. Which stoichiometry N [5] did it give?
Its stoichiometry N is 2.

Which stoichiometry N [6] does the source give for SARS-CoV-2 3CLpro E290D (enzyme) here?
Its stoichiometry N is 2.

SARS-CoV-2 3CLpro E290Q (enzyme) was tested. Which stoichiometry N [7] did it give?
Its stoichiometry N is 2.

How did the stoichiometry N [8] turn out when SARS-CoV-2 3CLpro E290Y (enzyme) was run?
The stoichiometry N was 2.

SARS-CoV-2 3CLpro K12A (enzyme) was tested. Which relative proteolytic activity on the FRET peptide substrate, percent of WT [9] did it give?
Its relative proteolytic activity on the FRET peptide substrate, percent of WT is 60%.

And the share of the monomer form [10]?
The share of the monomer form was 60%.

What about the stoichiometry N [10] of the same substance?
Its stoichiometry N is 2.

SARS-CoV-2 3CLpro Q299A (enzyme) was tested. Which stoichiometry N [11] did it give?
Its stoichiometry N is 2.

How did the stoichiometry N [12] turn out when SARS-CoV-2 3CLpro Q299E (enzyme) was run?
Its stoichiometry N is 2.

For SARS-CoV-2 3CLpro Q299N (enzyme), which stoichiometry N [13] is on record?
The stoichiometry N was 2.

For SARS-CoV-2 3CLpro R4A (enzyme), which stoichiometry N [14] is on record?
The stoichiometry N was 2.

With SARS-CoV-2 3CLpro R4Q (enzyme) as the substance, how does the stoichiometry N [15] read?
Its stoichiometry N is 2.

For SARS-CoV-2 3CLpro S1A (enzyme), which stoichiometry N [16] is on record?
The stoichiometry N was 2.

SARS-CoV-2 3CLpro S10A (enzyme) was tested. Which stoichiometry N [17] did it give?
Its stoichiometry N is 2.

SARS-CoV-2 3CLpro S10C (enzyme) was tested. Which stoichiometry N [18] did it give?
The stoichiometry N was 2.

For SARS-CoV-2 3CLpro S10T (enzyme), which stoichiometry N [19] is on record?
The stoichiometry N was 2.

With SARS-CoV-2 3CLpro S139A (enzyme) as the substance, how does the stoichiometry N [20] read?
The stoichiometry N was 2.
